Test results taken from PMC8298264, “Function of cofactor Akirin2 in the regulation of gene expression in model human neutrophil-like HL60 cells” (Bioscience Reports, 2021).

B1: sp¦Q9BXW7¦HDHD5_HUMAN (protein, UniProt Q9BXW7 24-423, looked up)
Haloacid dehalogenase-like …: AAGLQGRPARRCYAVGPAQSPPTFGFLLDIDGVLVRGHRVIPAALKAFRRLVNSQGQLRVPVVFVTNAGNILQHSKAQELSALLGCEVDADQVILSHSPMKLFSEYHEKRMLVSGQGPVMENAQGLGFRNVVTVDELRMAFPLLDMVDLERRLKTTPLPRNDFPRIEGVLLLGEPVRWETSLQLIMDVLLSNGSPGAGLATPPYPHLPVLASNMDLLWMAEAKMPRFGHGTFLLCLETIYQKVTGKELRYEGLMGKPSILTYQYAEDLIRRQAERRGWAAPIRKLYAVGDNPMSDVYGANLFHQYLQKATHDGAPELGAGGTRQQQPSASQSCISILVCTGVYNPRNPQSTEPVLGGGEPPFHGHRDLCFSPGLMEASHVVNDVNEAVQLVFRKEGWALE
B2: sp¦Q92878¦RAD50_HUMAN (protein, UniProt Q92878 1-1312, looked up)
DNA repair protein RAD50: MSRIEKMSILGVRSFGIEDKDKQIITFFSPLTILVGPNGAGKTTIIECLKYICTGDFPPGTKGNTFVHDPKVAQETDVRAQIRLQFRDVNGELIAVQRSMVCTQKSKKTEFKTLEGVITRTKHGEKVSLSSKCAEIDREMISSLGVSKAVLNNVIFCHQEDSNWPLSEGKALKQKFDEIFSATRYIKALETLRQVRQTQGQKVKEYQMELKYLKQYKEKACEIRDQITSKEAQLTSSKEIVKSYENELDPLKNRLKEIEHNLSKIMKLDNEIKALDSRKKQMEKDNSELEEKMEKVFQGTDEQLNDLYHNHQRTVREKERKLVDCHRELEKLNKESRLLNQEKSELLVEQGRLQLQADRHQEHIRARDSLIQSLATQLELDGFERGPFSERQIKNFHKLVRERQEGEAKTANQLMNDFAEKETLKQKQIDEIRDKKTGLGRIIELKSEILSKKQNELKNVKYELQQLEGSSDRILELDQELIKAERELSKAEKNSNVETLKMEVISLQNEKADLDRTLRKLDQEMEQLNHHTTTRTQMEMLTKDKADKDEQIRKIKSRHSDELTSLLGYFPNKKQLEDWLHSKSKEINQTRDRLAKLNKELASSEQNKNHINNELKRKEEQLSSYEDKLFDVCGSQDFESDLDRLKEEIEKSSKQRAMLAGATAVYSQFITQLTDENQSCCPVCQRVFQTEAELQEVISDLQSKLRLAPDKLKSTESELKKKEKRRDEMLGLVPMRQSIIDLKEKEIPELRNKLQNVNRDIQRLKNDIEEQETLLGTIMPEEESAKVCLTDVTIMERFQMELKDVERKIAQQAAKLQGIDLDRTVQQVNQEKQEKQHKLDTVSSKIELNRKLIQDQQEQIQHLKSTTNELKSEKLQISTNLQRRQQLEEQTVELSTEVQSLYREIKDAKEQVSPLETTLEKFQQEKEELINKKNTSNKIAQDKLNDIKEKVKNIHGYMKDIENYIQDGKDDYKKQKETELNKVIAQLSECEKHKEKINEDMRLMRQDIDTQKIQERWLQDNLTLRKRNEELKEVEEERKQHLKEMGQMQVLQMKSEHQKLEENIDNIKRNHNLALGRQKGYEEEIIHFKKELREPQFRDAEEKYREMMIVMRTTELVNKDLDIYYKTLDQAIMKFHSMKMEEINKIIRDLWRSTYRGQDIEYIEIRSDADENVSASDKRRNYNYRVVMLKGDTALDMRGRCSAGQKVLASLIIRLALAETFCLNCGIIALDEPTTNLDRENIESLAHALVEIIKSRSQQRNFQLLVITHDEDFVELLGRSEYVEKFYRIKKNIDQCSEIVKCSVSSLGFNVH
B3: sp¦Q7L5N7¦PCAT2_HUMAN (protein, UniProt Q7L5N7 1-544, looked up)
Lysophosphatidylcholine …: MSRCAQAAEVAATVPGAGVGNVGLRPPMVPRQASFFPPPVPNPFVQQTQIGSARRVQIVLLGIILLPIRVLLVALILLLAWPFAAISTVCCPEKLTHPITGWRRKITQTALKFLGRAMFFSMGFIVAVKGKIASPLEAPVFVAAPHSTFFDGIACVVAGLPSMVSRNENAQVPLIGRLLRAVQPVLVSRVDPDSRKNTINEIIKRTTSGGEWPQILVFPEGTCTNRSCLITFKPGAFIPGVPVQPVLLRYPNKLDTVTWTWQGYTFIQLCMLTFCQLFTKVEVEFMPVQVPNDEEKNDPVLFANKVRNLMAEALGIPVTDHTYEDCRLMISAGQLTLPMEAGLVEFTKISRKLKLDWDGVRKHLDEYASIASSSKGGRIGIEEFAKYLKLPVSDVLRQLFALFDRNHDGSIDFREYVIGLAVLCNPSNTEEIIQVAFKLFDVDEDGYITEEEFSTILQASLGVPDLDVSGLFKEIAQGDSISYEEFKSFALKHPEYAKIFTTYLDLQTCHVFSLPKEVQTTPSTASNKVSPEKHEESTSDKKDD
B4: sp¦O75915¦PRAF3_HUMAN (protein, UniProt O75915 1-188, looked up)
PRA1 family protein 3: MDVNIAPLRAWDDFFPGSDRFARPDFRDISKWNNRVVSNLLYYQTNYLVVAAMMISIVGFLSPFNMILGGIVVVLVFTGFVWAAHNKDVLRRMKKRYPTTFVMVVMLASYFLISMFGGVMVFVFGITFPLLLMFIHASLRLRNLKNKLENKMEGIGLKRTPMGIVLDALEQQEEGINRLTDYISKVKE
B5: sp¦Q9P035¦HACD3_HUMAN (protein, UniProt Q9P035 1-362, looked up)
Very-long-chain …: MENQVLTPHVYWAQRHRELYLRVELSDVQNPAISITENVLHFKAQGHGAKGDNVYEFHLEFLDLVKPEPVYKLTQRQVNITVQKKVSQWWERLTKQEKRPLFLAPDFDRWLDESDAEMELRAKEEERLNKLRLESEGSPETLTNLRKGYLFMYNLVQFLGFSWIFVNLTVRFCILGKESFYDTFHTVADMMYFCQMLAVVETINAAIGVTTSPVLPSLIQLLGRNFILFIIFGTMEEMQNKAVVFFVFYLWSAIEIFRYSFYMLTCIDMDWKVLTWLRYTLWIPLYPLGCLAEAVSVIQSIPIFNETGRFSFTLPYPVKIKVRFSFFLQIYLIMIFLGLYINFRHLYKQRRRRYGQKKKKIH
B6: sp¦P61020¦RAB5B_HUMAN (protein, UniProt P61020 2-215, looked up)
Ras-related protein Rab-5B: TSRSTARPNGQPQASKICQFKLVLLGESAVGKSSLVLRFVKGQFHEYQESTIGAAFLTQSVCLDDTTVKFEIWDTAGQERYHSLAPMYYRGAQAAIVVYDITNQETFARAKTWVKELQRQASPSIVIALAGNKADLANKRMVEYEEAQAYADDNSLLFMETSAKTAMNVNDLFLAIAKKLPKSEPQNLGGAAGRSRGVDLHEQSQQNKSQCCSN
B7: sp¦Q99442¦SEC62_HUMAN (protein, UniProt Q99442 1-399, looked up)
Translocation protein SEC62: MAERRRHKKRIQEVGEPSKEEKAVAKYLRFNCPTKSTNMMGHRVDYFIASKAVDCLLDSKWAKAKKGEEALFTTRESVVDYCNRLLKKQFFHRALKVMKMKYDKDIKKEKDKGKAESGKEEDKKSKKENIKDEKTKKEKEKKKDGEKEESKKEETPGTPKKKETKKKFKLEPHDDQVFLDGNEVYVWIYDPVHFKTFVMGLILVIAVIAATLFPLWPAEMRVGVYYLSVGAGCFVASILLLAVARCILFLIIWLITGGRHHFWFLPNLTADVGFIDSFRPLYTHEYKGPKADLKKDEKSETKKQQKSDSEEKSDSEKKEDEEGKVGPGNHGTEGSGGERHSDTDSDRREDDRSQHSSGNGNDFEMITKEELEQQTDGDCEEDEEEENDGETPKSSHEKS
B8: RRRRRsp¦Q5VW38¦GP107_HUMAN (protein, UniProt Q5VW38 40-600, looked up)
Protein GPR107: RVHHLALKDDVRHKVHLNTFGFFKDGYMVVNVSSLSLNEPEDKDVTIGFSLDRTKNDGFSSYLDEDVNYCILKKQSVSVTLLILDISRSEVRVKSPPEAGTQLPKIIFSRDEKVLGQSQEPNVNPASAGNQTQKTQDGGKSKRSTVDSKAMGEKSFSVHNNGGAVSFQFFFNISTDDQEGLYSLYFHKCLGKELPSDKFTFSLDIEITEKNPDSYLSAGEIPLPKLYISMAFFFFLSGTIWIHILRKRRNDVFKIHWLMAALPFTKSLSLVFHAIDYHYISSQGFPIEGWAVVYYITHLLKGALLFITIALIGTGWAFIKHILSDKDKKIFMIVIPLQVLANVAYIIIESTEEGTTEYGLWKDSLFLVDLLCCGAILFPVVWSIRHLQEASATDGKGDSMGPLQQRANLRAGSRIESHHFAQADLELLASSCPPASVSQRAGITAAINLAKLKLFRHYYVLIVCYIYFTRIIAFLLKLAVPFQWKWLYQLLDETATLVFFVLTGYKFRPASDNPYLQLSQEEEDLEMESVVTTSGVMESMKKVKKVTNGSVEPQGEWEGAV
B9: sp¦Q9UQE7¦SMC3_HUMAN (protein, UniProt Q9UQE7 1-1217, looked up)
Structural maintenance of …: MYIKQVIIQGFRSYRDQTIVDPFSSKHNVIVGRNGSGKSNFFYAIQFVLSDEFSHLRPEQRLALLHEGTGPRVISAFVEIIFDNSDNRLPIDKEEVSLRRVIGAKKDQYFLDKKMVTKNDVMNLLESAGFSRSNPYYIVKQGKINQMATAPDSQRLKLLREVAGTRVYDERKEESISLMKETEGKREKINELLKYIEERLHTLEEEKEELAQYQKWDKMRRALEYTIYNQELNETRAKLDELSAKRETSGEKSRQLRDAQQDARDKMEDIERQVRELKTKISAMKEEKEQLSAERQEQIKQRTKLELKAKDLQDELAGNSEQRKRLLKERQKLLEKIEEKQKELAETEPKFNSVKEKEERGIARLAQATQERTDLYAKQGRGSQFTSKEERDKWIKKELKSLDQAINDKKRQIAAIHKDLEDTEANKEKNLEQYNKLDQDLNEVKARVEELDRKYYEVKNKKDELQSERNYLWREENAEQQALAAKREDLEKKQQLLRAATGKAILNGIDSINKVLDHFRRKGINQHVQNGYHGIVMNNFECEPAFYTCVEVTAGNRLFYHIVDSDEVSTKILMEFNKMNLPGEVTFLPLNKLDVRDTAYPETNDAIPMISKLRYNPRFDKAFKHVFGKTLICRSMEVSTQLARAFTMDCITLEGDQVSHRGALTGGYYDTRKSRLELQKDVRKAEEELGELEAKLNENLRRNIERINNEIDQLMNQMQQIETQQRKFKASRDSILSEMKMLKEKRQQSEKTFMPKQRSLQSLEASLHAMESTRESLKAELGTDLLSQLSLEDQKRVDALNDEIRQLQQENRQLLNERIKLEGIITRVETYLNENLRKRLDQVEQELNELRETEGGTVLTATTSELEAINKRVKDTMARSEDLDNSIDKTEAGIKELQKSMERWKNMEKEHMDAINHDTKELEKMTNRQGMLLKKKEECMKKIRELGSLPQEAFEKYQTLSLKQLFRKLEQCNTELKKYSHVNKKALDQFVNFSEQKEKLIKRQEELDRGYKSIMELMNVLELRKYEAIQLTFKQVSKNFSEVFQKLVPGGKATLVMKKGDVEGSQSQDEGEGSGESERGSGSQSSVPSVDQFTGVGIRVSFTGKQGEMREMQQLSGGQKSLVALALIFAIQKCDPAPFYLFDEIDQALDAQHRKAVSDMIMELAVHAQFITTTFRPELLESADKFYGVKFRNKVSHIDVITAEMAKDFVEDDTTHG

System: human HL60 cells
Test: SWATH-MS proteomics, differential protein representation, akirin2 KO vs WT HL60 cells
Assay type: cell-based
Conditions: KO vs WT HL60 cells; sheet "Under-represented in KO"
In short: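 First, proteins from wild-type and knockout cells are digested with trypsin by FASP. Next, pooled IDA runs generate a reference ion library. Then six samples of 5 µg each are acquired by data-independent SWATH, and protein areas are normalized to the summed area of all detected proteins.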

| Molecule | Fold Change | Log (Fold Change) |
| --- | --- | --- |
| B1 | 0.4469 | -0.3498 |
| B2 | 0.4495 | -0.3473 |
| B3 | 0.4537 | -0.3432 |
| B4 | 0.4503 | -0.3465 |
| B5 | 0.4569 | -0.3402 |
| B6 | 0.4514 | -0.3455 |

Same assay, conditions: akirin2 KO vs WT HL60 cells; sheet "Under-represented in KO"

| Molecule | Fold Change | Log (Fold Change) |
| --- | --- | --- |
| B7 | 0.4401 | -0.3564 |
| B8 | 0.4419 | -0.3547 |
| B9 | 0.4375 | -0.359 |
